± gives the standard deviation of the averaged measurements.
Test: total protein half-life in vivo (active degradation + dilution); higher = more stable protein
[1] = E. coli NCM3722 delta-clpP delta-lon delta-hslV, growth: N-lim chemostat, doubling time 6 h
[2] = E. coli NCM3722 delta-clpP, growth: N-lim chemostat, doubling time 6 h
[3] = E. coli NCM3722 delta-hslV, growth: N-lim chemostat, doubling time 6 h
[4] = E. coli NCM3722 delta-lon, growth: N-lim chemostat, doubling time 6 h
[5] = wild type E. coli NCM3722, growth: C-lim chemostat, doubling time 3 h
[6] = wild type E. coli NCM3722, growth: C-lim chemostat, doubling time 6 h
[7] = wild type E. coli NCM3722, growth: C-lim chemostat, doubling time 12 h
[8] = wild type E. coli NCM3722, growth: N-lim chemostat, doubling time 6 h
[9] = wild type E. coli NCM3722, growth: N-lim chemostat, doubling time 12 h
[10] = wild type E. coli NCM3722, growth: P-lim chemostat, doubling time 6 h
[11] = wild type E. coli NCM3722, growth: P-lim chemostat, doubling time 12 h
[12] = E. coli NCM3722 delta-smpB, growth: N-lim chemostat, doubling time 6 h

Row | Sequence | total protein half-life in vivo [1] | total protein half-life in vivo [2] | total protein half-life in vivo [3] | total protein half-life in vivo [4] | total protein half-life in vivo [5] | total protein half-life in vivo [6] | total protein half-life in vivo [7] | total protein half-life in vivo [8] | total protein half-life in vivo [9] | total protein half-life in vivo [10] | total protein half-life in vivo [11] | total protein half-life in vivo [12]
1 | MHFRAITRIVGLLVILFSGTMIIPGLVALIYRDGAGRAFTQTFFVALAIGSMLWWPNRKEKGELKSREGFLIVVLFWTVLGSVGALPFIFSESPNLTITDAFFESFSGLTTTGATTLVGLDSLPHAILFYRQMLQWFGGMGIIVLAVAILPILGVGGMQLYRAEMPGPLKDNKMRPRIAETAKTLWLIYVLLTVACALALWFAGMDAFDAIGHSFATIAIGGFSTHDASIGYFDSPTINTIIAIFLLISGCNYGLHFSLLSGRSLKVYWRDPEFRMFIGVQFTLVVICTLVLWFHNVYSSALMTINQAFFQVVSMATTAGFTTDSIARWPLFLPVLLLCSAFIGGCAGSTGGGLKVIRILLLFKQGNRELKRLVHPNAVYSIKLGNRALPERILEAVWGFFSAYALVFIVSMLAIIATGVDDFSAFASVVATLNNLGPGLGVVADNFTSMNPVAKWILIANMLFGRLEVFTLLVLFTPTFWRE [P0AFZ7] | 7.11 h | 6.5 h | 6.15 ± 0.27 h | 5.5 ± 1.2 h | 3.51 ± 0.23 h | 6.13 ± 0.096 h | 12.8 ± 1.7 h | 6.77 ± 0.85 h | 12.3 ± 0.14 h | 5.4 h | 11.4 ± 0.63 h | 
2 | MHGNSEMQKINQTSAMPEKTDVHWSGRFSVAPMLDWTDRHCRYFLRLLSRNTLLYTEMVTTGAIIHGKGDYLAYSEEEHPVALQLGGSDPAALAQCAKLAEARGYDEINLNVGCPSDRVQNGMFGACLMGNAQLVADCVKAMRDVVSIPVTVKTRIGIDDQDSYEFLCDFINTVSGKGECEMFIIHARKAWLSGLSPKENREIPPLDYPRVYQLKRDFPHLTMSINGGIKSLEEAKAHLQHMDGVMVGREAYQNPGILAAVDREIFGSSDTDADPVAVVRAMYPYIERELSQGTYLGHITRHMLGLFQGIPGARQWRRYLSENAHKAGADINVLEHALKLVADKR | 4.26 ± 0.35 h | 4.49 ± 1.1 h | 4.51 ± 0.81 h | 4.31 ± 0.14 h | 3.01 ± 0.14 h | 5.432 ± 0.022 h | 9.77 ± 1.5 h | 4.2 ± 0.5 h | 6.88 ± 0.21 h | 6.57 ± 1.6 h | 10.9 ± 1.2 h | 4.07 ± 0.18 h
3 | MHHATPLITTIVGGLVLAFILGMLANKLRISPLVGYLLAGVLAGPFTPGFVADTKLAPELAELGVILLMFGVGLHFSLKDLMAVKAIAIPGAIAQIAVATLLGMALSAVLGWSLMTGIVFGLCLSTASTVVLLRALEERQLIDSQRGQIAIGWLIVEDLVMVLTLVLLPAVAGMMEQGDVGFATLAVDMGITIGKVIAFIAIMMLVGRRLVPWIMARSAATGSRELFTLSVLALALGVAFGAVELFDVSFALGAFFAGMVLNESELSHRAAHDTLPLRDAFAVLFFVSVGMLFDPLILIQQPLAVLATLAIILFGKSLAAFFLVRLFGHSQRTALTIAASLAQIGEFAFILAGLGMALNLLPQAGQNLVLAGAILSIMLNPVLFALLEKYLAKTETLEEQTLEEAIEEEKQIPVDICNHALLVGYGRVGSLLGEKLLASDIPLVVIETSRTRVDELRERGVRAVLGNAANEEIMQLAHLECAKWLILTIPNGYEAGEIVASARAKNPDIEIIARAHYDDEVAYITERGANQVVMGEREIARTMLELLETPPAGEVVTG | 7.0037 ± 0.0035 h | 6.7 ± 0.41 h | 6.3 ± 0.52 h | 6.24 ± 1.1 h | > 4 h | 5.87 ± 0.64 h |  | 5.84 ± 0.9 h | 12.7 ± 0.69 h | 6.44 ± 0.68 h | 12.6 ± 0.86 h | 6.31 ± 0.61 h
4 | MHINIAWQDVDTVLLDMDGTLLDLAFDNYFWQKLVPETWGAKNGVTPQEAMEYMRQQYHDVQHTLNWYCLDYWSEQLGLDICAMTTEMGPRAVLREDTIPFLEALKASGKQRILLTNAHPHNLAVKLEHTGLDAHLDLLLSTHTFGYPKEDQRLWHAVAEATGLKAERTLFIDDSEAILDAAAQFGIRYCLGVTNPDSGIAEKQYQRHPSLNDYRRLIPSLM | 4.35 ± 0.11 h |  |  | 2.37 ± 2.1 h | 0.973 ± 0.063 h | 0.971 h |  |  |  | 0.56 h | 0.544 h | 
5 | MHKFTKALAAIGLAAVMSQSAMAENLKLGFLVKQPEEPWFQTEWKFADKAGKDLGFEVIKIAVPDGEKTLNAIDSLAASGAKGFVICTPDPKLGSAIVAKARGYDMKVIAVDDQFVNAKGKPMDTVPLVMMAATKIGERQGQELYKEMQKRGWDVKESAVMAITANELDTARRRTTGSMDALKAAGFPEKQIYQVPTKSNDIPGAFDAANSMLVQHPEVKHWLIVGMNDSTVLGGVRATEGQGFKAADIIGIGINGVDAVSELSKAQATGFYGSLLPSPDVHGYKSSEMLYNWVAKDVEPPKFTEVTDVVLITRDNFKEELEKKGLGGK | 5.11 ± 0.82 h | 5.55 ± 0.61 h | 6.44 ± 0.68 h | 6.58 ± 0.93 h | 3.11 ± 0.2 h | 6.07 ± 0.47 h | 12.2 ± 2.1 h | 5.99 ± 0.45 h | 12.3 ± 3.3 h | 5.91 ± 0.24 h | 13.1 ± 0.49 h | 6.54 ± 1.9 h

Source: the supplement of paper PMC11246515
